Measured values: patent US5691312A, “Pharmaceutical for subcutaneous or intramuscular administration containing polypeptides” (Behringwerke Aktiengesellschaft, priority 1989, dated 1997)

Columns and labels:
[1] = additive for sc or im administration of proteins; WO 86/06962 and EP-A-0,292,908; cited from earlier work
[2] = Bioavailability and/or tolerability of polypeptides administered sc or im with added amino acid (general statements); assay type: in vivo, rats or rabbits; conditions: amino acid additives, sc or im administration
Method: (§1) Each ml of the thawed solutions from Example 1 was administered sc and im (femoral biceps) in animals (rats or rabbits). In the case of im administration, the total volume of 1 ml was divided between four types of injection.
(§2) After 0, 15, 30, 60, 120, 180, 240 and 340 minutes (r-t-PA mutant) or 0, 30, 60, 120, 180, 240, 300, 360, 420 and 450 minutes (r-t-PA, hirudin, urokinase AT III, F XIII, von Willebrand, EPO, PP4), blood samples (+ citrate) were taken. The blood samples were then immediately centrifuged and the resulting citrate plasma was frozen at -20° C. until the determination. The plasma concentration of the test substance was measured as follows:
(§3) The area under the curve (AUC) was then calculated. This value is an expression of the bioavailability and makes possible comparison between the different presentation forms.

[3] = Hemorrhages at the administration site, hirudin; assay type: in vivo, rat
Method: as §1
(§4) Number of animals with hemorrhages

[4] = Hemorrhages at the administration site, urokinase; assay type: in vivo, rabbit; conditions: for Number of animals with hemorrhages: 0.05 M tris, 5 mg/kg
Method: as §1, §4

[5] = Bioavailability of t-PA in the rat (plasma concentration by ELISA, AUC); assay type: in vivo; conditions: n=2, 3.3/8.2 mg/kg
Method: Each ml of the thawed solutions from Example 1 was administered sc and im (femoral biceps) in animals (rats or rabbits). In the case of im administration, the total volume of 1 ml was divided between four types of injection. […]
as §2
r-t-PA ELISA (Biopool, Sweden)
as §3
I. Bioavailability of t-PA in the rat

[6] = Death of animals after sc/im administration; assay type: in vivo; conditions: buffer 5 (0.05 M tris, 0.1 M NaCl pH 7.5, 0.1% Tween 80, 50 mg/ml hydroxylamine), rat, 3.3/8.2 mg/kg
Method: as §1

[7] = presentation form according to the invention versus customary presentation forms

NO [hydroxylamine]
tolerability [1]: limited tolerability

CN [methylamine]
tolerability [1]: limited tolerability

EPO: r-erythropoietin (EPO); 1 mg of EPO corresponds to 80,000 U of EPO antigen
influence on the bioavailability and/or improvement in the tolerability [2]: favorable influence

F XIII: F XIII (Fibrogammin) obtained from Behringwerke
influence on the bioavailability and/or improvement in the tolerability [2]: favorable influence

Hirudin
Number of animals with hemorrhages ([3]; 0.05 M tris, 0.1 M NaCl, im, 10 mg/kg): 3/3 | animal died as a result of the hemorrhages ([3]; 0.05 M tris, 0.1 M NaCl, im, 10 mg/kg, of 3 animals): 1 animal | Number of animals with hemorrhages ([3]; 0.05 M tris, 0.1 M NaCl, sc, 10 mg/kg): 2/3 | Number of animals with hemorrhages ([3]; 0.2 M arginine, 0.2 M lysine pH 7.5, im, 10 mg/kg): 0/3 | Number of animals with hemorrhages ([3]; 0.2 M arginine, 0.2 M lysine pH 7.5, sc, 10 mg/kg): 0/3 | hemorrhages at the administration site on sc and im administration [3, 7]: distinctly less | influence on the bioavailability and/or improvement in the tolerability [2]: favorable influence

PP4: PP4 (placenta protein 4) prepared by the process of EP 0,123,307
influence on the bioavailability and/or improvement in the tolerability [2]: favorable influence

Urokinase
influence on the bioavailability and/or improvement in the tolerability [2]: favorable influence | Number of animals with hemorrhages ([4]; 0.1 M NaCl pH 7.5, im): 2/3 | Number of animals with hemorrhages ([4]; 0.1 M NaCl pH 7.5, sc): 2/3 | hemorrhages at the administration site on sc and im administration [4, 7]: distinctly less

antithrombin III
influence on the bioavailability and/or improvement in the tolerability [2]: favorable influence

t-PA: r-t-PA (Actilyse) purchased from Boehringer Ingelheim; tissue plasminogen activator
AUC + Variation (%) ([5]; buffer 1 (0.05 M tris, 0.1 M NaCl), im): 358 ± 10% | AUC + Variation (%) ([5]; buffer 1 (0.05 M tris, 0.1 M NaCl), sc): 36 ± 13% | AUC + Variation (%) ([5]; buffer 2 (idem buffer 1, pH 4.5), im): 386 ± 2% | AUC + Variation (%) ([5]; buffer 2 (idem buffer 1, pH 4.5), sc): 53 ± 14% | AUC + Variation (%) ([5]; buffer 3 (0.2 M arginine, 0.2 M lysine pH 7.5), im): 756 ± 2% | AUC + Variation (%) ([5]; buffer 3 (0.2 M arginine, 0.2 M lysine pH 7.5), sc): 423 ± 3% | AUC + Variation (%) ([5]; buffer 4 (0.2 M arginine, 0.2 M lysine pH 4.5), im): 669 ± 17% | AUC + Variation (%) ([5]; buffer 4 (0.2 M arginine, 0.2 M lysine pH 4.5), sc): 382 ± 11% | AUC + Variation (%) ([5]; buffer 7 (0.05 M tris, 0.1 M NaCl pH 7.5, 0.1% Tween 80, 3% dimethyl sulfoxide), im): 184 ± 18% | AUC + Variation (%) ([5]; buffer 7 (0.05 M tris, 0.1 M NaCl pH 7.5, 0.1% Tween 80, 3% dimethyl sulfoxide), sc): 87 ± 12% | AUC + Variation (%) ([5]; buffer 8 (0.2 M arginine pH 7.5), im): 600 ± 4% | AUC + Variation (%) ([5]; buffer 8 (0.2 M arginine pH 7.5), sc): 320 ± 2% | AUC + Variation (%) ([5]; buffer 9 (0.2 M lysine pH 7.5), im): 610 ± 10% | AUC + Variation (%) ([5]; buffer 9 (0.2 M lysine pH 7.5), sc): 290 ± 11% | animals died ([6]; im): all animals died | animals died ([6]; sc): all animals died | influence on the bioavailability and/or improvement in the tolerability [2]: favorable influence

von Willebrand factor: prepared by the process of DE 3,904,354 (1 mg of vW corresponds to 100 U of vW antigen)
influence on the bioavailability and/or improvement in the tolerability [2]: favorable influence
